What all share (assay): cell-based or functional assay
Assay [1] addresses T1, Tec(h)activated (human) (UniProt P42680).
T1 sequence (looked up): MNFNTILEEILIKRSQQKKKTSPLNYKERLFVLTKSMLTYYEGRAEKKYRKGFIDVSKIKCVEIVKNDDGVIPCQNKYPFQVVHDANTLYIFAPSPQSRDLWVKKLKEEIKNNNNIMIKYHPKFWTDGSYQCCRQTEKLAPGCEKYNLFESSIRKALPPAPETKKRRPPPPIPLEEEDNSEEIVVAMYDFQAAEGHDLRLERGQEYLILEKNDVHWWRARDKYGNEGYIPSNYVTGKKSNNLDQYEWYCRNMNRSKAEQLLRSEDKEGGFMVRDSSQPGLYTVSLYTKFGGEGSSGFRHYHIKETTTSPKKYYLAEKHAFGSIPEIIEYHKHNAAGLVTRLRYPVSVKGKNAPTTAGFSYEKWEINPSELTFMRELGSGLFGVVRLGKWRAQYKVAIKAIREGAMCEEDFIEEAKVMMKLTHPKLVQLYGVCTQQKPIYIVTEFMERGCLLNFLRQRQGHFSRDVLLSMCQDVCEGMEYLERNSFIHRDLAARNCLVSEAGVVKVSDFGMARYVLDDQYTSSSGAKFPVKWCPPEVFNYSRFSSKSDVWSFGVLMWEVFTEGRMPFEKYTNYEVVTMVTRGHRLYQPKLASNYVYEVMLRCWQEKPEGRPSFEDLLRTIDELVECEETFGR

For assay [2], the target named is PDGFRβ(h) (human) (UniProt P09619).
The target in assay [3] is AMPKα1(h) (human) (UniProt Q13131).
Assay [4] has as its target T2, eEF-2K(h) (human) (UniProt O00418).
T2 sequence (looked up): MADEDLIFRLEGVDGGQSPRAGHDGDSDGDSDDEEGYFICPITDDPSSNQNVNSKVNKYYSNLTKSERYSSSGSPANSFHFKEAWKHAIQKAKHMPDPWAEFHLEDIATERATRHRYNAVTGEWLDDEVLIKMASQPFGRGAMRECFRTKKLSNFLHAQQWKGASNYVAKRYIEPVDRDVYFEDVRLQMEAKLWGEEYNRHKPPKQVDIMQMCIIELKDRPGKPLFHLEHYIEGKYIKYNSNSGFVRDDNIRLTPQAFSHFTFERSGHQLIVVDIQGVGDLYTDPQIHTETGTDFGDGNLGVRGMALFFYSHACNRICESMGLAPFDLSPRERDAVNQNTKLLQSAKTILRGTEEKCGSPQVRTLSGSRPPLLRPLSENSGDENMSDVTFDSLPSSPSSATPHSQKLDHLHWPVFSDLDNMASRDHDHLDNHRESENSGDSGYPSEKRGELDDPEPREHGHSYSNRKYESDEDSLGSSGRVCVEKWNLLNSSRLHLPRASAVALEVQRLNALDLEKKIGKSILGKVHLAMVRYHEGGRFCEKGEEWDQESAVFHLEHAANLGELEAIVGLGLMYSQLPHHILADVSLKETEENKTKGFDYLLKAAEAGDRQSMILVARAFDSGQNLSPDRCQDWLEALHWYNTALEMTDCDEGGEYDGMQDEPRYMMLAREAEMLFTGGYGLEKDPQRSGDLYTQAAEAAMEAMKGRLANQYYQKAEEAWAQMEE

Assay [5] has as its target MST3(h) (human) (UniProt Q9Y6E0).
Assay [6] deals with EphB4(h) (human) (UniProt P54760).
Assay [7] addresses SIK(h) (human) (UniProt P57059).
In assay [8] the target is Fer(h) (human) (UniProt P16591).
The target in assay [9] is T3, Rse(h) (human) (UniProt Q06418).
T3 sequence (looked up): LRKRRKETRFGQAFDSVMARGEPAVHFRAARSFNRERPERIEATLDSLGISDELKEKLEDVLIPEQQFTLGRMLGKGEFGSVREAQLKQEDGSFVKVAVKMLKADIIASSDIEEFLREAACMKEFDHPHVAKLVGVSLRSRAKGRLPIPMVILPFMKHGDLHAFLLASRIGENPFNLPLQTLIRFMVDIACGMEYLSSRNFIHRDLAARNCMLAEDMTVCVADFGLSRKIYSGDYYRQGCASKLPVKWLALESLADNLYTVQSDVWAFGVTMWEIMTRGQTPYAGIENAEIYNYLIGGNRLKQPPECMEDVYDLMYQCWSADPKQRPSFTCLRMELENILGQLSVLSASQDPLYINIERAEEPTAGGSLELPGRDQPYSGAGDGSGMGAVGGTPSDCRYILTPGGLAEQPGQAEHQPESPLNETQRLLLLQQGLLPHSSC

The target in assay [10] is Hck(h) activated (human) (UniProt P08631).
Assay [11] has as its target PKCβII(h) (human) (UniProt P05771).
In assay [12] the target is CaMKI(h) (human) (UniProt Q14012).
Assay [13] concerns the target MARK1(h) (human) (UniProt Q9P0L2).
Assay [14] has as its target T4, PKCζ(h) (human) (UniProt Q05513).
T4 sequence (looked up): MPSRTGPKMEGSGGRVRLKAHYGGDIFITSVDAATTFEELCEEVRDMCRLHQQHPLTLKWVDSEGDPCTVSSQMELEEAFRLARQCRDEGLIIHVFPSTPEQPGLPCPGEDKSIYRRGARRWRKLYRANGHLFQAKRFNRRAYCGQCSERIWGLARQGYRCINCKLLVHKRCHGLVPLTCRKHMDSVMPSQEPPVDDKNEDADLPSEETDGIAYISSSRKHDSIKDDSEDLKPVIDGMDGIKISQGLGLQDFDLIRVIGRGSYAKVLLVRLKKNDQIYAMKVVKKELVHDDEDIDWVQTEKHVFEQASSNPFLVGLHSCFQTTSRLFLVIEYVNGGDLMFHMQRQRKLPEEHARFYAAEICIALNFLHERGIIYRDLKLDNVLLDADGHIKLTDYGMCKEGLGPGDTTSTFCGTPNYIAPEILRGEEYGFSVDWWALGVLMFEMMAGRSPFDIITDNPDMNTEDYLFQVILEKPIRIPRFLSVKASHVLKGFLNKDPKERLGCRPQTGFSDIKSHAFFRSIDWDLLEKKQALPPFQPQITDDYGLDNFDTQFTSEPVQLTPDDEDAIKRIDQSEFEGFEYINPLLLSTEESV

Assay [15] addresses CDK9/cyclin T1(h) (human) (UniProt P50750).
The target of assay [16] is MAPKAP-K3(h) (human) (UniProt Q16644).

We go through one substance from patent US20140072613A1, “Compositions and Methods for Treating Cutaneous Scarring” (priority 2012, published 2014).

Chain of MAPKAP-K3(h) (human) (Q16644 whole entry): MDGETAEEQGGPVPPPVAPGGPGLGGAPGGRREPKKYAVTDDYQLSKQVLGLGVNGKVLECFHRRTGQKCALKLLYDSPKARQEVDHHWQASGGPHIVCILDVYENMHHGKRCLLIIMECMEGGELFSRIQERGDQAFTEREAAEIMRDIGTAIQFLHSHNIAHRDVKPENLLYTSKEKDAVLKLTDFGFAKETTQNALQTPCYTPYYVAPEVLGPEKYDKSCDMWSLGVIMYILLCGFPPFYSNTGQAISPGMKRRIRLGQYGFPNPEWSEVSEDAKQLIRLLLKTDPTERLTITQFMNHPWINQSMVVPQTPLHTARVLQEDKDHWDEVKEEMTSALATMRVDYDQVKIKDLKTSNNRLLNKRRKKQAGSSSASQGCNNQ
Chain of CaMKI(h) (human) (Q14012 whole entry): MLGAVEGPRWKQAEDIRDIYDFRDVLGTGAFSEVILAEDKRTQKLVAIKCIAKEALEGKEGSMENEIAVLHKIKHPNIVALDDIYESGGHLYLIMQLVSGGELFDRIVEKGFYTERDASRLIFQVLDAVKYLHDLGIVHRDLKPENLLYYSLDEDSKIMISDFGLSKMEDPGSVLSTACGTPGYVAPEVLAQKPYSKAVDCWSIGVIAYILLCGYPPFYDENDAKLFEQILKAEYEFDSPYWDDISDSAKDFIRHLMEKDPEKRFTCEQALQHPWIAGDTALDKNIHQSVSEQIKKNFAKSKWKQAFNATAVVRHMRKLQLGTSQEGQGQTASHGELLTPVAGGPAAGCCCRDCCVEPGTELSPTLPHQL
Chain of Fer(h) (human) (P16591 541-822 limits assumed): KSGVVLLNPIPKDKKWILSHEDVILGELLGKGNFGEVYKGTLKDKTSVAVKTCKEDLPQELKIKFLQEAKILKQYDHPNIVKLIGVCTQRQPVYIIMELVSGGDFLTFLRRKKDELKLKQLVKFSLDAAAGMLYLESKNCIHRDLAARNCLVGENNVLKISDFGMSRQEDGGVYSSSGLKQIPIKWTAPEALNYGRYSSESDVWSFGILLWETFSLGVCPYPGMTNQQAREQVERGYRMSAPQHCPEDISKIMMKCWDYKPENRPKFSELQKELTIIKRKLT
Chain of PDGFRβ(h) (human) (P09619 557-1106 limits assumed): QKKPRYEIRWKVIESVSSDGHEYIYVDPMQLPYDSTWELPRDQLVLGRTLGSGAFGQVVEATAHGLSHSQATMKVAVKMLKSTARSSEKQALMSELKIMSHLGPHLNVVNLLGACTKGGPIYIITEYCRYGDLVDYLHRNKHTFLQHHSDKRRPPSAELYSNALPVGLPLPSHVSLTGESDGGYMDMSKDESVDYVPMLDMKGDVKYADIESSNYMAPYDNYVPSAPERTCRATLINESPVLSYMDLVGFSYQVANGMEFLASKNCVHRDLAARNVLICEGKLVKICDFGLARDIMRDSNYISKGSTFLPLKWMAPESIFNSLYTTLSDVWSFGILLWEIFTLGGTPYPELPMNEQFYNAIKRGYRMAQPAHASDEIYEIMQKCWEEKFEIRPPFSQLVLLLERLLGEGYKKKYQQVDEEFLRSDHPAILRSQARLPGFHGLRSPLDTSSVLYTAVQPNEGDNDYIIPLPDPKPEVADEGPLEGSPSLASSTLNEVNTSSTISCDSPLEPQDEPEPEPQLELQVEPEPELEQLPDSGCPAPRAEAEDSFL
Chain of EphB4(h) (human) (P54760 561-987 limits assumed): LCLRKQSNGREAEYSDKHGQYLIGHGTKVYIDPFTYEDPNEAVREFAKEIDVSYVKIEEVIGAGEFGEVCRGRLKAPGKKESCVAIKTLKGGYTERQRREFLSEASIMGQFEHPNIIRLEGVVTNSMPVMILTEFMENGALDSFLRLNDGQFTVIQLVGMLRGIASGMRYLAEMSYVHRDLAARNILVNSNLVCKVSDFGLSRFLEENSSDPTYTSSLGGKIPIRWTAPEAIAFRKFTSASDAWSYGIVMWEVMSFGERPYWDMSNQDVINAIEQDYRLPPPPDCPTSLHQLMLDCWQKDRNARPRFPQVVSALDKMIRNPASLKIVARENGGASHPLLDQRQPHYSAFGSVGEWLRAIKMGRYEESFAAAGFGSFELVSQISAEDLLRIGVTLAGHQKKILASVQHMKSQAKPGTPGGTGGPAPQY
Chain of AMPKα1(h) (human) (Q13131 whole entry): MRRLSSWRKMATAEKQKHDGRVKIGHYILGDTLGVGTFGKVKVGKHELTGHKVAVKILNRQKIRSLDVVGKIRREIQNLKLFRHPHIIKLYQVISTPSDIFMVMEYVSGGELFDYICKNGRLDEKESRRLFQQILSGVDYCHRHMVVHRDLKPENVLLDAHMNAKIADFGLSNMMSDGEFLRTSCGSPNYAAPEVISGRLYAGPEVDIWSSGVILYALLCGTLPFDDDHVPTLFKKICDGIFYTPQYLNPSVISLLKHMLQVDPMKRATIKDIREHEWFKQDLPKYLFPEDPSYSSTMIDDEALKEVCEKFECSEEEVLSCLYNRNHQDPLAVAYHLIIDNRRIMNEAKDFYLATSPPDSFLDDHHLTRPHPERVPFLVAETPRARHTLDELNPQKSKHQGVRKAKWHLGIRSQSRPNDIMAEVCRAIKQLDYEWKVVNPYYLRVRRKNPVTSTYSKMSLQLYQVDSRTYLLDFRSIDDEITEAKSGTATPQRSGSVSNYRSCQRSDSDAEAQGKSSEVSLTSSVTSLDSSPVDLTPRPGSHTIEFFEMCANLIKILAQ
Chain of SIK(h) (human) (P57059 whole entry): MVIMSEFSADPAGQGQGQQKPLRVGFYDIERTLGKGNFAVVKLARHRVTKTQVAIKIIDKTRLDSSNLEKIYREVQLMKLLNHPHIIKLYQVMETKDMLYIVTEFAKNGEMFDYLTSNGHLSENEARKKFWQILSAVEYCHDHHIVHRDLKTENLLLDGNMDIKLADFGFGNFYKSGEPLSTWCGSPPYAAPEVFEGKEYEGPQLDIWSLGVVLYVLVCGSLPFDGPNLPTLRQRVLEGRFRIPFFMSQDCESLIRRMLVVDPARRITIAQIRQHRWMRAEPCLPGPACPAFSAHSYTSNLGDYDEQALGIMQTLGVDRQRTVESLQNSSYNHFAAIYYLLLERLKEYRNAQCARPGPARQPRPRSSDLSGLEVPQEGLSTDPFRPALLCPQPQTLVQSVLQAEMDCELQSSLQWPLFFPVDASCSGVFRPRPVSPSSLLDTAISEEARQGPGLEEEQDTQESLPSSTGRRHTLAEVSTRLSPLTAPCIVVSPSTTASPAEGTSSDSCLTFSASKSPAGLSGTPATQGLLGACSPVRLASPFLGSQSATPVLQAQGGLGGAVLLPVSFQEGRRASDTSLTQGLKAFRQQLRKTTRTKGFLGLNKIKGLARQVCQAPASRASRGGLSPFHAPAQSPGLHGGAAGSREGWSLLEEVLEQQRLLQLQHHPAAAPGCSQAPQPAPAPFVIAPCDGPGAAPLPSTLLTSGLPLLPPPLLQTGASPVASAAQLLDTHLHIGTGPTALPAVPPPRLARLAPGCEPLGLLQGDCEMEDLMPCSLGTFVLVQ
Chain of PKCβII(h) (human) (P05771 other isoform, or with tags, fused parts or gaps): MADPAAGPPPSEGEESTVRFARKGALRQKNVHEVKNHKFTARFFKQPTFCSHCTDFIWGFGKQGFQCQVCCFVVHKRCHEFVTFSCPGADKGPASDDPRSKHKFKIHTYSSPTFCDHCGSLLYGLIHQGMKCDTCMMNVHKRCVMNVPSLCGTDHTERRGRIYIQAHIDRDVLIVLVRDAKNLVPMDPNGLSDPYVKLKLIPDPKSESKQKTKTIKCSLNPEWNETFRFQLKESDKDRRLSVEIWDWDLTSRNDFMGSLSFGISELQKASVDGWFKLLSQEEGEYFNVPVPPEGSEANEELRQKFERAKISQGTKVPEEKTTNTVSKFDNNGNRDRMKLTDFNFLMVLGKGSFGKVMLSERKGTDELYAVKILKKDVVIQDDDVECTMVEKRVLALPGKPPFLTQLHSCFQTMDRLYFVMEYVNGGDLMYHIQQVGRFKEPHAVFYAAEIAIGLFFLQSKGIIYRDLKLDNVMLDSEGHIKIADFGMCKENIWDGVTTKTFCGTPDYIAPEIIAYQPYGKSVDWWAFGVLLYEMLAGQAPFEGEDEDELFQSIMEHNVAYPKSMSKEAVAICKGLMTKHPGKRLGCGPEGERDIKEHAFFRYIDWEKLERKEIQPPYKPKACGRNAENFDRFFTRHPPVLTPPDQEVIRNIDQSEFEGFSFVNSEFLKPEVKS
Chain of MST3(h) (human) (Q9Y6E0 whole entry): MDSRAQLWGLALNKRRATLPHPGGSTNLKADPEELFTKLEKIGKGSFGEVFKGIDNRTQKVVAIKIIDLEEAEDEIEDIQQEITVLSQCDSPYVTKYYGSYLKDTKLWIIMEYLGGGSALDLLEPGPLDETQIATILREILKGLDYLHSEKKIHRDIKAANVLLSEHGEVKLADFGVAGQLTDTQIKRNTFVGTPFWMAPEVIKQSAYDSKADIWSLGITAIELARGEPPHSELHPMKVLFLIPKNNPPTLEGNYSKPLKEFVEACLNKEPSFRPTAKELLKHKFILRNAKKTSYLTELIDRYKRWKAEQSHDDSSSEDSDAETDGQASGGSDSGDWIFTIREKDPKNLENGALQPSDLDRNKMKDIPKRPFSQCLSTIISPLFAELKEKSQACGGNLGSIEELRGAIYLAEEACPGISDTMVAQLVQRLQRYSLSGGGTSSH
Chain of Hck(h) activated (human) (P08631 251-518 limits assumed): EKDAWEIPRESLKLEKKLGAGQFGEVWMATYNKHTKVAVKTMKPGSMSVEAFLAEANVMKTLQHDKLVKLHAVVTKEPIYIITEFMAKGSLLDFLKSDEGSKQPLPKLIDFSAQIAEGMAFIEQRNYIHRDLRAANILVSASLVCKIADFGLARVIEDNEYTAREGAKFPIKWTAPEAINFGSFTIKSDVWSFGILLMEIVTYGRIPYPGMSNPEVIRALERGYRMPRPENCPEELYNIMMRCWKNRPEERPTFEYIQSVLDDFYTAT

Turning to MMI-0500 (peptide), the % activity, 100 µM is 33% in assay [1]; 40% in assay [2]; 35% in assay [3]; 43% in [4]; 4% in [5]; 38% in assay [6]. In addition, the % activity, 100 µM was 40% in assay [7]; 196% in [8]; 63% in assay [9]; 67% in [10]; 3% in assay [11]; -1% in assay [12]. The % activity, 100 µM is 110% in assay [13], 7% in assay [14], 6% in assay [15] and 9% in assay [16]. The inhibition of kinase activity at 100 µM in [12] and in assay [16] was more than 65% throughout.
